27 variants from the supplement of paper PMC7125110 can be followed below.

± gives the standard error. This sample holds only a part of the variants without activity.

Sequences and labels used below:
B1: glmS ribozyme (parent)
chain: AUAAAAGCGCCAGAACUACAGAAAUGUAGUUGACGAGGAGGAGGUUUAUCGAAUUUUCGGCGGAUGCCUCCAAA

Holding throughout (details): with glucosamine-6-phosphate
Variants of B1 are the subject of data set [1]. Nature of the data set: self-cleavage kobs at 160 uM GlcN6P; higher = faster cleavage; RNA array. An outline of the steps:
(§1)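 Weighted Michaelis–Menten fits across concentrations supplied kcat and KM, based on kobs from one- or two-exponential decay fits to normalised per-tile medians. The data came from barcoded ribozyme variants transcribed in situ by E. coli RNA polymerase on sequenced MiSeq chips and tracked at 37 °C by a hybridised Cy3 probe. Glucosamine-6-phosphate (40 μM to 10 mM) in HEPES/KCl/Mg(OAc)2 buffer was flowed in.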

In data set [2] the parent is B1. The data set is described as follows: self-cleavage kobs at 2500 uM GlcN6P; higher = faster cleavage; RNA array. An outline of the steps: as §1
Variants of B1 are the subject of data set [3]. Nature of the data set: self-cleavage kobs at 640 uM GlcN6P; higher = faster cleavage; RNA array. The method in brief: as §1
Data set [4] covers variants of B1. The data set is described as follows: self-cleavage kobs at 10000 uM GlcN6P; higher = faster cleavage; RNA array. An outline of the steps: as §1

On to C16G U30A C58U G59A G60U C67G, for which the “self-cleavage kobs at 160 uM GlcN6P” value in the data set with glucosamine-6-phosphate [1] was < 1e-05 s⁻¹.

As for C50G G66C, the “self-cleavage kobs at 160 uM GlcN6P” value in the data set with glucosamine-6-phosphate [1] was 0.000112 ± 3.9e-05 s⁻¹.

In the case of A15C G32U G35U, the “self-cleavage kobs at 160 uM GlcN6P” value with glucosamine-6-phosphate [1] is < 1e-05 s⁻¹. The “self-cleavage kobs at 2500 uM GlcN6P” value in the data set with glucosamine-6-phosphate [2] was < 1e-05 s⁻¹.

Take A15C U30G C34U G40A U55A: the “self-cleavage kobs at 160 uM GlcN6P” value in the data set with glucosamine-6-phosphate [1] is < 1e-05 s⁻¹.

Turning to U30A G51A, the “self-cleavage kobs at 160 uM GlcN6P” value in the data set with glucosamine-6-phosphate [1] is < 1e-05 s⁻¹.

G7U G38A G40A G62A: the “self-cleavage kobs at 160 uM GlcN6P” value with glucosamine-6-phosphate [1] is < 1e-05 s⁻¹. In addition, in the data set with glucosamine-6-phosphate [3], the “self-cleavage kobs at 640 uM GlcN6P” value is < 1e-05 s⁻¹. In the data set with glucosamine-6-phosphate [2], the “self-cleavage kobs at 2500 uM GlcN6P” value is < 1e-05 s⁻¹.

With A14G U55A A64C C70U, in the data set with glucosamine-6-phosphate [1], the “self-cleavage kobs at 160 uM GlcN6P” value was 3.8e-05 ± 1.7e-05 s⁻¹. Moreover, the “self-cleavage kobs at 640 uM GlcN6P” value with glucosamine-6-phosphate [3] stood at 0.000343 ± 8.3e-05 s⁻¹. Moreover, the “self-cleavage kobs at 2500 uM GlcN6P” value with glucosamine-6-phosphate [2] was 0.000958 ± 0.00021 s⁻¹. For the same variant, in the data set with glucosamine-6-phosphate [4], the “self-cleavage kobs at 10000 uM GlcN6P” value was found to be 0.000686 ± 0.00019 s⁻¹.

On to A12C G63C G66C, for which the “self-cleavage kobs at 160 uM GlcN6P” value in the data set with glucosamine-6-phosphate [1] is < 1e-05 s⁻¹. Moreover, in the data set with glucosamine-6-phosphate [3], the “self-cleavage kobs at 640 uM GlcN6P” value is < 1e-05 s⁻¹.

Consider C50A C67U U69C, for which, in the data set with glucosamine-6-phosphate [1], the “self-cleavage kobs at 160 uM GlcN6P” value was 5.97e-05 ± 1.8e-05 s⁻¹. The “self-cleavage kobs at 2500 uM GlcN6P” value with glucosamine-6-phosphate [2] was 0.000119 ± 3.2e-05 s⁻¹.

For the variant A33U A48G, the “self-cleavage kobs at 160 uM GlcN6P” value with glucosamine-6-phosphate [1] was < 1e-05 s⁻¹. The “self-cleavage kobs at 640 uM GlcN6P” value with glucosamine-6-phosphate [3] is < 1e-05 s⁻¹. Also, the “self-cleavage kobs at 2500 uM GlcN6P” value with glucosamine-6-phosphate [2] is < 1e-05 s⁻¹.

Consider C10G C11U G13C A36C G43C, for which the “self-cleavage kobs at 160 uM GlcN6P” value in the data set with glucosamine-6-phosphate [1] is < 1e-05 s⁻¹. Moreover, in the data set with glucosamine-6-phosphate [3], the “self-cleavage kobs at 640 uM GlcN6P” value is < 1e-05 s⁻¹. For the same variant, in the data set with glucosamine-6-phosphate [2], the “self-cleavage kobs at 2500 uM GlcN6P” value was < 1e-05 s⁻¹.

For the variant U30C A42U U49A, in the data set with glucosamine-6-phosphate [1], the “self-cleavage kobs at 160 uM GlcN6P” value was < 1e-05 s⁻¹. Moreover, the “self-cleavage kobs at 640 uM GlcN6P” value in the data set with glucosamine-6-phosphate [3] was < 1e-05 s⁻¹. In the data set with glucosamine-6-phosphate [2], the “self-cleavage kobs at 2500 uM GlcN6P” value was < 1e-05 s⁻¹.

For U46G U57G, in the data set with glucosamine-6-phosphate [1], the “self-cleavage kobs at 160 uM GlcN6P” value was < 1e-05 s⁻¹. For the same variant, in the data set with glucosamine-6-phosphate [3], the “self-cleavage kobs at 640 uM GlcN6P” value is < 1e-05 s⁻¹.

For the variant C8G G38A A48U C61U, the “self-cleavage kobs at 160 uM GlcN6P” value with glucosamine-6-phosphate [1] was < 1e-05 s⁻¹.

As to C50A U54G C67G, the “self-cleavage kobs at 160 uM GlcN6P” value in the data set with glucosamine-6-phosphate [1] is 0.000319 ± 0.00012 s⁻¹. Besides, in the data set with glucosamine-6-phosphate [3], the “self-cleavage kobs at 640 uM GlcN6P” value is 0.000125 ± 4.8e-05 s⁻¹. Further, the “self-cleavage kobs at 2500 uM GlcN6P” value with glucosamine-6-phosphate [2] is 0.000101 ± 4.6e-05 s⁻¹.

Regarding A14C A36U G38C A39G, the “self-cleavage kobs at 160 uM GlcN6P” value with glucosamine-6-phosphate [1] is < 1e-05 s⁻¹. The “self-cleavage kobs at 2500 uM GlcN6P” value with glucosamine-6-phosphate [2] is < 1e-05 s⁻¹.

In the case of A12C G35C, the “self-cleavage kobs at 160 uM GlcN6P” value with glucosamine-6-phosphate [1] is < 1e-05 s⁻¹. Further, the “self-cleavage kobs at 640 uM GlcN6P” value in the data set with glucosamine-6-phosphate [3] was < 1e-05 s⁻¹. In the data set with glucosamine-6-phosphate [2], the “self-cleavage kobs at 2500 uM GlcN6P” value is < 1e-05 s⁻¹.

For the variant C8U A12C A42U A53U C61A, in the data set with glucosamine-6-phosphate [1], the “self-cleavage kobs at 160 uM GlcN6P” value was < 1e-05 s⁻¹. The “self-cleavage kobs at 640 uM GlcN6P” value with glucosamine-6-phosphate [3] is < 1e-05 s⁻¹. Besides, in the data set with glucosamine-6-phosphate [2], the “self-cleavage kobs at 2500 uM GlcN6P” value was < 1e-05 s⁻¹.

Regarding A14U A15G U49A A53U, in the data set with glucosamine-6-phosphate [1], the “self-cleavage kobs at 160 uM GlcN6P” value is < 1e-05 s⁻¹. Further, in the data set with glucosamine-6-phosphate [4], the “self-cleavage kobs at 10000 uM GlcN6P” value was < 1e-05 s⁻¹.

As for C50G U56A C58G, the “self-cleavage kobs at 160 uM GlcN6P” value in the data set with glucosamine-6-phosphate [1] worked out at 9.66e-05 ± 4.4e-05 s⁻¹. The “self-cleavage kobs at 640 uM GlcN6P” value with glucosamine-6-phosphate [3] came out at 0.00041 ± 0.00014 s⁻¹. For the same variant, the “self-cleavage kobs at 2500 uM GlcN6P” value with glucosamine-6-phosphate [2] was 6.12e-05 ± 2.4e-05 s⁻¹.

For the variant G35C G62U A64U, the “self-cleavage kobs at 160 uM GlcN6P” value with glucosamine-6-phosphate [1] was < 1e-05 s⁻¹. For the same variant, the “self-cleavage kobs at 2500 uM GlcN6P” value in the data set with glucosamine-6-phosphate [2] is < 1e-05 s⁻¹.

C10A U45C: the “self-cleavage kobs at 160 uM GlcN6P” value in the data set with glucosamine-6-phosphate [1] is < 1e-05 s⁻¹. In the data set with glucosamine-6-phosphate [3], the “self-cleavage kobs at 640 uM GlcN6P” value was < 1e-05 s⁻¹. Moreover, in the data set with glucosamine-6-phosphate [2], the “self-cleavage kobs at 2500 uM GlcN6P” value was < 1e-05 s⁻¹. Moreover, the “self-cleavage kobs at 10000 uM GlcN6P” value with glucosamine-6-phosphate [4] was < 1e-05 s⁻¹.

Regarding A33U G37U G43A, the “self-cleavage kobs at 160 uM GlcN6P” value with glucosamine-6-phosphate [1] is < 1e-05 s⁻¹.

Turning to G13A C34U, the “self-cleavage kobs at 160 uM GlcN6P” value with glucosamine-6-phosphate [1] is < 1e-05 s⁻¹. The “self-cleavage kobs at 640 uM GlcN6P” value with glucosamine-6-phosphate [3] is < 1e-05 s⁻¹. Moreover, the “self-cleavage kobs at 2500 uM GlcN6P” value with glucosamine-6-phosphate [2] is < 1e-05 s⁻¹.

In the case of G13C A53U G59A C71U, the “self-cleavage kobs at 160 uM GlcN6P” value with glucosamine-6-phosphate [1] is < 1e-05 s⁻¹. The “self-cleavage kobs at 2500 uM GlcN6P” value in the data set with glucosamine-6-phosphate [2] is < 1e-05 s⁻¹.

On to G7U C61U, for which the “self-cleavage kobs at 160 uM GlcN6P” value with glucosamine-6-phosphate [1] is < 1e-05 s⁻¹. Further, in the data set with glucosamine-6-phosphate [3], the “self-cleavage kobs at 640 uM GlcN6P” value was < 1e-05 s⁻¹. In addition, in the data set with glucosamine-6-phosphate [4], the “self-cleavage kobs at 10000 uM GlcN6P” value is < 1e-05 s⁻¹.

Regarding G41A C50A, the “self-cleavage kobs at 160 uM GlcN6P” value in the data set with glucosamine-6-phosphate [1] is < 1e-05 s⁻¹. In addition, in the data set with glucosamine-6-phosphate [3], the “self-cleavage kobs at 640 uM GlcN6P” value was < 1e-05 s⁻¹. The “self-cleavage kobs at 2500 uM GlcN6P” value with glucosamine-6-phosphate [2] was < 1e-05 s⁻¹. Also, in the data set with glucosamine-6-phosphate [4], the “self-cleavage kobs at 10000 uM GlcN6P” value was < 1e-05 s⁻¹.
